The text below walks through data of US8633156B2, “Insulin derivatives having an extremely delayed time-action profile” (Sanofi-Aventis Deutschland GmbH, priority 2008, dated 2014).

For data set [1] the following is noted: from Kohn et al., cited from earlier work.
In data set [2] the test system is healthy male normal glycemic Wistar rats. In words: Blood glucose-lowering effect of insulin analogues in rats. As to conditions: dose 9 nmol/kg s.c., n=8, blood glucose up to eight hours after injection. The class given is in vivo, rat.
Procedure: In order to test the insulin derivatives of the invention for their biopharmacological and physicochemical properties, a solution of the compounds was prepared as follows: the insulin derivative of the invention was dissolved with a target concentration of 240±5 μM in 1 mM hydrochloric acid with 80 μg/mL zinc (as zinc chloride). For this purpose, initially an amount of the freeze-dried material which is about 30% higher than required on the basis of the molecular weight and the desired concentration was weighed out. The concentration present was then determined by analytical HPLC and the solution was subsequently made up to the volume necessary to achieve the target concentration with 5 mM hydrochloric acid with 80 μg/mL zinc. If necessary, the pH was readjusted to 3.5±0.1. After the final analysis by HPLC to verify the target concentration of 240±5 μM, the finished solution was transferred by means of a syringe with a 0.2 μm filter attachment into a sterile vial which was closed with a septum and a crimped cap. […] Blood samples are taken from the animals immediately before the injection of the insulin analogue and at regular intervals up to eight hours after the injection, and the blood glucose content therein is determined.

Consider “Arg (A0), Gly (A21), Arg (B31), Arg (B32) human insulin [Compound 18]”, for which, in data set [1] (calculated), the calculated pl is given as 7.58. Moreover, in data set [1] (experimentally determined), the experimentally determined pl is 7.3.

For human insulin, the “isoelectric point (pl)” value in data set [1] is 5.6. Also, the hypoglycemic effect result in data set [2] is “hypoglycemic effect”.
